Assays:
[1] = biological target: T1, human BTLA ECD-his (monomeric human BTLA-his) (human, UniProt Q7Z6A9 31-157); experiment: Kinetic Exclusion Assay (KinExA 3000), solution phase, 6G3 IgG4 APE10840.04 at 100 pM, human BTLA ECD-his titrated
T1 construct: extracellular domain; also called human BTLA extracellular domain
T1 sequence (looked up): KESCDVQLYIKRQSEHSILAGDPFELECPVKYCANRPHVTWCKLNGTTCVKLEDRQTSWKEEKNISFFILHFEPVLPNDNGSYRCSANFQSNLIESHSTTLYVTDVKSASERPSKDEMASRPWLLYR
Method: Solution-based affinity measurements of 6G3 IgG4 (APE10840.04 (H Chain SEQ ID NO: 144, L Chain SEQ ID NO: 174)) binding to BTLA were determined on a KinExA 3000 (Sapidyne Instruments). Azlactone beads (ThermoFisher Scientific) were coated with human BTLA ECD-his (30 μg/ml) or cynomolgus monkey BTLA ECD-his (20 μg/ml) in 50 mM Na2CO3 for 2 hours at room temperature and blocked with 10 mg/ml BSA. 6G3 IgG4 APE10840.04 concentration was kept constant at 100 pM for binding in both human and cynomolgus monkey BTLA experiments. Human or cynomolgus monkey BTLA ECD-his was added at 25° C. in 2.5-fold dilutions from 1000 nM to 68 fM. Sample sets were equilibrated at 4° C. for 72 hours and brought to room temperature for 6 hours before capturing free antibody with BTLA-coupled Azlactone beads. […] Maximum and background signals were determined on samples with 6G3 only and buffer only, respectively. Data were analyzed using KinExA Pro Software 3.2.6.

[2] = biological target: T2, cynomolgus monkey BTLA ECD-his (monomeric cynomolgus monkey BTLA-his) (cynomolgus monkey, UniProt A0A2K5W7M7 31-157); experiment: SPR, Biacore T200, antibody captured on anti-human IgG, monomeric cynomolgus monkey BTLA-his as analyte, 25 °C, 1:1 model; 6G3 IgG4 (APE10840.05) captured on the chip; cynomolgus BTLA-his analyte
T2 construct: extracellular domain; also called cynomolgus monkey BTLA extracellular domain
T2 sequence: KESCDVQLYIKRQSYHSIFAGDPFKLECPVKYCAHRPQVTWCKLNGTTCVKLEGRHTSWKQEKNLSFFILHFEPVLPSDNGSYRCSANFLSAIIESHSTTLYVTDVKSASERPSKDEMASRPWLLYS
Method: Surface plasmon resonance (SPR) analyses were carried out using a Biacore T200 (GE Healthcare Life Sciences). Kinetic constants were determined using a 1:1 binding model in the Biacore T200 Evaluation Software to calculate on- and off-rates (kₐ and kd, respectively), and dissociation constants as a measure of overall affinity (KD). Anti-human IgG (GE Healthcare Life Sciences) was immobilized on a CMS chip using EDC-activated amine coupling chemistry (420 seconds contact at a flow rate of 10 μl/min). Antibodies (APE10585.04 6G3 IgG1 and APE10840.05 6G3 IgG4), each at 0.5 μg/m1) were captured in a 60 second contact with the flow cell using a flow rate of 10 μl/min. Monomeric human BTLA-his or cynomolgus monkey BTLA-his at 60 nM, 20 nM, 6.7 nM and 2.2 nM concentrations was flowed over captured antibody (480 seconds association, 1800 seconds dissociation). Runs were at 25° C. and used buffer containing 10 mM HEPES, pH 7.6, 150 mM NaCl, 3 mM EDTA, 0.05% polysorbate 20 (HBS-EP+, pH 7.6; Teknova) for the mobile phase and all dilutions. At the end of each cycle, bound antigen was removed by regeneration with two successive exposures (60 seconds and 90 seconds) to 3 M MgCl2 (30 μl/min). Sensorgrams and binding constants corresponding to the experiment are shown in FIG. 1 (human BTLA) and FIG. 1 (cynomolgus monkey BTLA). […]

[3] = biological target: T3, cynomolgus monkey BTLA on cells (stably transfected 293c18 clone 1G5); cynomolgus peripheral blood T and B … (cynomolgus monkey, UniProt A0A2K5W7M7 31-289); experiment: flow cytometry on cynomolgus monkey BTLA 293c18 cells, anti-human kappa-PE detection; both lots (APE10840.03 and APE10840.04); cynomolgus BTLA 293c18 cells
T3 construct: whole, on cells; also called cynomolgus monkey BTLA 293c18 cells
T3 sequence: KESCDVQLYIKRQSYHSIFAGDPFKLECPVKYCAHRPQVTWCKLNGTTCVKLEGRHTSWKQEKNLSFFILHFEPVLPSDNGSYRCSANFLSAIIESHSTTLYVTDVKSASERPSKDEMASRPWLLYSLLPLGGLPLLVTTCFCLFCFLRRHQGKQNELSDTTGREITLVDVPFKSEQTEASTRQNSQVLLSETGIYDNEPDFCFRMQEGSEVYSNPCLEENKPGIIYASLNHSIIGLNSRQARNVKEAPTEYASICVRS
Method: (§1) 293c18 cell clone 1E4 stably expressing human BTLA construct or clone 1G5 stably expressing cynomolgus monkey BTLA were harvested with Accutase solution (Millipore Sigma/Sigma-Aldrich) and washed once with Phosphate-Buffered Saline, 1% BSA. 293c18 cynomolgus monkey BTLA cells were loaded with the lipophilic carbocyanine dye, DiD (2 μM, 1,1′-dioctadecyl-3,3,3′,3′-tetramenthylindodicarbocyanine; ThermoFisher Scientific) by rocking gently for 10 minutes at room temperature. DiD-stained cells were washed in PBS, 1% BSA and equal amounts of human BTLA 293c18 cells and cynomolgus monkey BTLA 293c18-DiD-stained cells were mixed. Cells (2×10⁵ total cells/sample) were incubated with the indicated concentrations of purified 6G3 IgG4 (two production lots, APE10840.03 and APE10840.04 (H Chain SEQ ID NO: 144, L Chain SEQ ID NO: 174)) or human IgG4 isotype control antibody specific for hen egg lysozyme with gentle shaking for 10 minutes at 4° C. in FACS buffer (PBS, 1% BSA, 0.02% sodium azide). […] Cells were washed and resuspended in FACS buffer and analyzed for fluorescence on a BD FACSArray (BD Biosciences). DiD stained cells expressing cynomolgus monkey BTLA (FIG. 3) were analyzed for median fluorescence intensity (MFI) separately from cells expressing human BTLA (FIG. 3). […]

[4] = biological target: T3, cynomolgus monkey BTLA on cells (stably …); experiment: flow cytometry (MFI) on 293c18 cells stably expressing cynomolgus monkey BTLA, goat anti-human kappa-PE detection, four-parameter fit [right panel (Cy BTLA 293c18 cells), EC50 box]
Method: as §1

- Kd [1]: ~0.41 nM
- Kd [2]: ~11 nM
- EC50 [3]: ~2.3 nM
- EC50 [4]: 2.3 nM
B1: 6G3 IgG4 anti-BTLA antibody (APE10840 / APE12839 / APE13308) (antibody, V domains shown)
VH: QVQLVQSGAEVKKPGSSVKVSCKASGYVFSTSWMNWVRQAPGQGLEWMGRIYPGDADTNYVGKFKGRVTITADKSTTTAYMELSSLRSEDTAVYFCAKSGTFNFGNYRWYFDVWGKGTTVTVSS
VL: AIQLTQSPSSLSASVGDRVTITCRVSENIYSHLAWYQQKPGKAPKLLIYAATNLALGVPSRFSGSGSGTDYTLTISSLQPEDFATYYCQLFWGPPLTFGGGTKVEIKR
notes: Humanized antibody from a mouse hybridoma, tested as human IgG4 (detected with anti-human kappa); Some assays used labelled lots (DyLight 650, AF647, biotin, DyL488); also called 6G3 antibody; APE10840.03

Reference: patent US20230391872A1 (ANAPTYSBIO, published 2023)
